B1: p38γ PBM peptide (C-terminal sequence of the MAP kinase p38γ) (peptide)
peptide: SWARVSKETPL
notes: also called MAPK12 PBM; source: synthetic peptide (Fmoc solid phase, Proteogenix)
B2: HBVc PBM peptide (C-terminal sequence of the hepatitis B virus core protein) (peptide)
peptide: RRRRSQSRESQC
notes: also called HBV Core PBM; source: synthetic peptide (Fmoc solid phase, Proteogenix)
B3: HPV16E6 PBM peptide (C-terminal sequence of the human papillomavirus type 16 E6 protein) (peptide)
peptide: RSSRTRRETQL
notes: Only the last seven residues (TRRETQL) are seen in the crystal; also called PBM of HPV16 E6; source: synthetic peptide (Fmoc solid phase, Proteogenix)
B4: PDZ domain of the human protein tyrosine phosphatase non-receptor type 3 (PTPN3-PDZ) (domain or fragment)
chain: GDSYLVLIRITPDEDGKFGFNLKGGVDQKMPLVVSRINPESPADTCIPKLNEGDQIVLINGRDISEHTHDQVVMFIKASRESHSRELALVIRRR

Tests used:
Conditions in all cases: both partners purified
[1] = molecular target: T1, PDZ domain of the human protein tyrosine phosphatase non-receptor type 3 (PTPN3-PDZ) (human, UniProt P26045-1 504-913, Start 504 is printed. End 597 comes from the 6HKS entity and fits the printed 94 residues (89 non-Pro). GST removed by TEV; any residual tag residues left out.); test: NMR titration; unlabeled peptide added stepwise to 15N-labeled PTPN3-PDZ at 95 or 149 μM; 1H,15N HSQC chemical shift perturbations; 15 °C; 50 mM Tris/HCl pH 7.5, 150 mM NaCl, 0.5 mM TCEP; KD from 8 to 14 fitted curves
[2] = molecular target: T1, PDZ domain of the human protein …; test: AUC; sedimentation velocity, PTPN3-PDZ at 70 μM with HBVc PBM peptide, 20 °C, 42000 rpm
[3] = molecular target: PTPN3-PDZ_(Next), PDZ domain of human PTPN3 extended at the N-terminus by 15 residues of its wild-type … (human, UniProt P26045-1 489-913, Start 489 is 504 minus the 15 residues printed. End 597 comes from the 6HKS entity (residues 6-114); its GAMGS tag remnant is left out.); test: AUC; sedimentation velocity, PTPN3-PDZ_(Next) at 70 μM with PBM peptide, 20 °C, 42000 rpm
[4] = molecular target: HPV18E6 PBM peptide (C-terminal sequence of the human papillomavirus type 18 E6 protein) (human papillomavirus type 18); test: NMR titration; unlabeled peptide added stepwise to 15N-labeled PTPN3-PDZ at 95 or 149 μM; 1H,15N HSQC chemical shift perturbations; 15 °C; 50 mM Tris/HCl pH 7.5, 150 mM NaCl, 0.5 mM TCEP; KD from 8 to 14 fitted curves

PTPN3-PDZ_(Next), PDZ domain of human PTPN3 extended at the N-terminus by 15 residues of its wild-type …, sequence (P26045 489-913): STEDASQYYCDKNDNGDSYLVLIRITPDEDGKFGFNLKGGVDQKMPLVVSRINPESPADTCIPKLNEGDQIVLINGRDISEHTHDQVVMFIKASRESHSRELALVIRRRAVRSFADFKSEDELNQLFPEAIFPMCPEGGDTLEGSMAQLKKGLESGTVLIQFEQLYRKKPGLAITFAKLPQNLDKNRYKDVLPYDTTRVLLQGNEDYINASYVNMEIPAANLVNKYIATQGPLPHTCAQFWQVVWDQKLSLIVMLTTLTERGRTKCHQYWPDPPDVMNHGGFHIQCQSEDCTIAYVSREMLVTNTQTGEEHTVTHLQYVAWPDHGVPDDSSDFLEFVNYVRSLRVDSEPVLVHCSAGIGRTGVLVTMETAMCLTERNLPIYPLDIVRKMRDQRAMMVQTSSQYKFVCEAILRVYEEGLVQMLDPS

Binder | Kd [1] | stoichiometry N [2] | stoichiometry N [3] | Kd [4]
B1 | 26 µM | – | – | –
B2 | 29 µM | 1 | 1 | –
B3 | 53 µM | – | 1 | –
B4 | – | – | – | 37 µM

From article PMC6520365, “Structural and functional characterization of the PDZ domain of the human phosphatase PTPN3 and its interaction with the human papillomavirus E6 oncoprotein” (Scientific Reports, 2019)
